Measured values: article PMC9961625, “Anti-Trypanosoma cruzi Properties of Sesquiterpene Lactones Isolated from Stevia spp.: In Vitro and In Silico Studies” (Pharmaceutics, 2023)

Test system: Cc1cc(=O)oc2cc(NC(=O)[C@@H]3CCCN3C(=O)CNC(=O)OCc3ccccc3)ccc12
Assay: purified protein

Substance: prolyl oligopeptidase of 80 kDa (Tc80) (Trypanosoma cruzi)
- Km: 5.9 µM
